Measurements as given in patent US20140161821A1, “TREATMENT WITH ANTI-PCSK9 ANTIBODIES” (PFIZER INC., priority 2011, published 2014).
Where two headings read alike, the source gives them in different places.

Experiments:
[1] = target: T1, PCSK9 (Homo sapiens, UniProt Q8NBP7); assay: Example 2 clinical study, single escalating IV doses: fasting lipids; assay type: in vivo
T1 construct: PCSK9 antagonist antibody that antagonizes circulating PCSK9; endogenous in cells; host or cells: human subjects in clinical trials (in vivo, circulating PCSK9)
T1 sequence (Q8NBP7 153-692): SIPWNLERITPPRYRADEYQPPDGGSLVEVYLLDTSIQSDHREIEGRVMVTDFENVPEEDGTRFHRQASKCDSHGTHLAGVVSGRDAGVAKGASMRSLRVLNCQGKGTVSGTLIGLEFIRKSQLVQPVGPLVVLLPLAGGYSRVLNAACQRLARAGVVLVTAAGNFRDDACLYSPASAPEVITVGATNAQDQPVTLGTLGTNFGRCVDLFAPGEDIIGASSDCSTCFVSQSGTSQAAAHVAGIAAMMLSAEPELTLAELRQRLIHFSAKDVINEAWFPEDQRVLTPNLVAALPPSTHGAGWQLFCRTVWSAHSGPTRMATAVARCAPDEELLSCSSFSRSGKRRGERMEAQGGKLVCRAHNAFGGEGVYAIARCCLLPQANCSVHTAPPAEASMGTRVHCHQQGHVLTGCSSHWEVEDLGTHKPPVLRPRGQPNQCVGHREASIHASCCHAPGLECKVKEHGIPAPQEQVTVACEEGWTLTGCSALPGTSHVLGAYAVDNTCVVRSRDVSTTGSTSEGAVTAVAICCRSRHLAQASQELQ
T1 sequence (Q8NBP7 31-152 partner limits assumed): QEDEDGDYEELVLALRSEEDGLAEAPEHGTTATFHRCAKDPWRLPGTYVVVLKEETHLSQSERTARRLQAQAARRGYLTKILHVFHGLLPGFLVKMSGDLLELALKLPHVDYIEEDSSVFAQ
Description: The study entailed a randomized, placebo-controlled, ascending, single dose study of L1L3. The subjects, investigator, and site personnel (except site personnel responsible for drug preparation) were blinded to treatment assignments, as was the CRO designee; while the Sponsor clinical research team was unblinded. The study was conducted in 6 planned cohorts of 8 subjects per cohort in an effort to seek a maximum tolerated dose or MTD (total of approximately 48 subjects). […] Doses were administered following an overnight fast as an intravenous infusion over 60 minutes. […] Infusions will be administered as a single infusion over 60 minutes.
Change in serum lipids (total cholesterol, LDL, HDL, Triglycerides, Non-HDL-C and Apoprotein B) were assessed.
Collection of fasting lipid profile was performed after at least a 10-hour fast (total cholesterol, LDL, HDL, Non-HDL Cholesterol, Apo B and triglycerides).

[2] = Description: Subjects were seen periodically in the clinic for safety assessments and collection of blood for safety labs, lipid profiles, PK, PD, and immunogenicity samples. Telephone contacts were made prior to each visit to remind them of the 10-hour fasting requirements, during screening and on Day 3 to assess adverse events and document the contact in the subject's source document. […] Infusions were administered as a single infusion over approximately 60 minutes.

B1: L1L3: humanized (<5% murine residues) monoclonal PCSK9 antagonist antibody that binds to secreted PCSK9; VH SEQ ID NO: 11, VL SEQ ID NO: 12 (antibody, V domains shown)
VH: QVQLVQSGAEVKKPGASVKVSCKASGYTFTSYYMHWVRQAPGQGLEWMGEISPFGGRTNYNEKFKSRVTMTRDTSTSTVYMELSSLRSEDTAVYYCARERPLYASDLWGQGTTVTVSS
VL: DIQMTQSPSSLSASVGDRVTITCRASQGISSALAWYQQKPGKAPKLLIYSASYRYTGVPSRFSGSGSGTDFTFTISSLQPEDIATYYCQQRYSLWRTFGQGTKLEIK
modifications: heavy chain variable region; light chain variable region
Fasting apolipoprotein B (apo B), % below baseline ([1]; 0.3 mg/kg, by day 7): about 25%
Fasting apolipoprotein B (apo B), % below baseline ([1]; 1 mg/kg, by day 14): about 40%
Fasting apolipoprotein B (apo B), % below baseline ([1]; 3 mg/kg, by day 14): about 40%
Fasting apolipoprotein B (apo B), % below baseline ([1]; 3 mg/kg, by day 28): about 50%
Fasting LDL-C levels ([1]; 6 mg/kg or 12 mg/kg, by day 14 post-dosing): about 55 mg/dL
Fasting apolipoprotein B (apo B), % below baseline ([1]; 6 mg/kg, by day 14): about 40%
Fasting apolipoprotein B (apo B), % below baseline ([1]; 6 mg/kg, by day 21): about 50%
Fasting apolipoprotein B (apo B), % below baseline ([1]; 6 mg/kg, generally, remainder of the study): > 30%
LDL-C percentage change from baseline (lowering) ([1]; 18 mg/kg, FIG. 2): up to 83%
Fasting LDL-C levels ([1]; 18 mg/kg, by day 14 post-dosing): about 20 mg/dL
Fasting LDL-C levels ([1]; 1, 3, 6, 12, or 18 mg/kg, by day 14 post-dosing): ≤ 70 mg/dL
Fasting apolipoprotein B (apo B), % below baseline ([1]; 12 or 18 mg/kg, by day 14, baseline about 119 mg/dL): about 50%
Fasting apolipoprotein B (apo B), % below baseline ([1]; 12 or 18 mg/kg, remainder of the study after day 14): ≥ 50%
Earliest day LDL-C lowering effects were seen ([1]; all dosage groups): 3 days
Day of maximum percentage LDL-C lowering ([1]; in general, all dosage groups): Day 15 or Day 22
Duration of maximum LDL-C lowering effect ([1]; single 0.3 mg/kg): 7 days
Fasting total cholesterol (TC), % reduced ([1]; single 0.3 mg/kg, by about day 9): about 25%
Fasting LDL-C levels ([1]; single 0.3 mg/kg, day 7 post-dosing): about 85 mg/dL
Fasting LDL-C levels ([1]; single 0.3 mg/kg, until about 10 days post-dosing): below 100 mg/dL
Duration of maximum LDL-C lowering effect ([1]; single 1.0 mg/kg): 14 days
Fasting total cholesterol (TC), % below baseline ([1]; single 1 mg/kg, by about day 15): about 36%
Fasting LDL-C levels ([1]; single 1 mg/kg, day 14 post-dosing): about 65 mg/dL
Fasting LDL-C levels ([1]; single 1 mg/kg, until about 21 days post-dosing): below 100 mg/dL
Duration of maximum LDL-C lowering effect ([1]; single 3.0 mg/kg): up to 4 weeks
Fasting total cholesterol (TC), % below baseline ([1]; single 3 mg/kg, by about day 9): about 30%
Fasting total cholesterol (TC), % below baseline ([1]; single 3 mg/kg, by about day 22): about 40%
Fasting LDL-C levels ([1]; single 3 mg/kg, day 14 post-dosing): about 70 mg/dL
Fasting LDL-C levels ([1]; single 3 mg/kg, day 21 post-dosing): about 60 mg/dL
LDL-C levels, % below baseline ([1]; single 3 mg/kg, maintained up to 29 days post administration): > 60%
LDL-C levels, % below baseline ([1]; single 3 mg/kg, maintained up to 50 days post administration): > 20%
Fasting LDL-C levels ([1]; single 3 mg/kg, until about 36 days post-dosing): below 100 mg/dL
LDL-C levels, % below baseline ([1]; single 6 mg/kg or 12 mg/kg, maintained up to 43 days post administration): > 60%
Duration of maximum LDL-C lowering effect ([1]; single 6 mg/kg, 12 mg/kg, and 18 mg/kg): more than 6 weeks
Fasting total cholesterol (TC), % below baseline ([1]; single 6 mg/kg, by about day 9 until about day 52 post-dosing): ≥ 30%
Fasting total cholesterol (TC), % below baseline, in a number of subjects ([1]; single 6 mg/kg, by day 30 post-dosing): > 50%
Fasting LDL-C levels ([1]; single 6 mg/kg, for about 42 days post-dosing): below 50 mg/dL
Fasting LDL-C levels ([1]; single 6 mg/kg, until at least about 57 days post-dosing): below 100 mg/dL
Fasting LDL-C levels ([1]; single 12 mg/kg, until at least about 57 days post-dosing (end of study)): ≤ 60 mg/dL
LDL-C levels, % below baseline ([1]; single 18 mg/kg, maintained at least up to 57 days post administration): > 65%
Fasting LDL-C levels ([1]; single 18 mg/kg, until at least about 57 days post-dosing): below 50 mg/dL
Fasting total cholesterol (TC), % below baseline ([1]; single 12 or 18 mg/kg, by about day 9, lasting at least to day 57, baseline about 230 mg/dL): ≥ 30%
Fasting total cholesterol (TC), % below baseline, in a number of subjects ([1]; single 12 or 18 mg/kg, by day 15 post-dosing): > 50%
mean percentage change from baseline of fasting LDL-C ([1]; single IV 0.3 mg/kg, visit day 1): 0.000%
mean percentage change from baseline of fasting LDL-C ([1]; single IV 0.3 mg/kg, visit day 2): −15.8%
mean percentage change from baseline of fasting LDL-C ([1]; single IV 0.3 mg/kg, visit day 3): −14.13%
mean percentage change from baseline of fasting LDL-C ([1]; single IV 0.3 mg/kg, visit day 4): −30.14%
mean percentage change from baseline of fasting LDL-C ([1]; single IV 0.3 mg/kg, visit day 8): −42.86%
mean percentage change from baseline of fasting LDL-C ([1]; single IV 0.3 mg/kg, visit day 15): −23.68%
mean percentage change from baseline of fasting LDL-C ([1]; single IV 0.3 mg/kg, visit day 22): −11.36%
mean percentage change from baseline of fasting LDL-C ([1]; single IV 0.3 mg/kg, visit day 29): −9.12%
mean percentage change from baseline of fasting LDL-C ([1]; single IV 1 mg/kg, visit day 1): 0.000%
mean percentage change from baseline of fasting LDL-C ([1]; single IV 1 mg/kg, visit day 2): −0.33%
mean percentage change from baseline of fasting LDL-C ([1]; single IV 1 mg/kg, visit day 3): −9.79%
mean percentage change from baseline of fasting LDL-C ([1]; single IV 1 mg/kg, visit day 4): −19.14%
mean percentage change from baseline of fasting LDL-C ([1]; single IV 1 mg/kg, visit day 8): −33.33%
mean percentage change from baseline of fasting LDL-C ([1]; single IV 1 mg/kg, visit day 15): −50.50%
mean percentage change from baseline of fasting LDL-C ([1]; single IV 1 mg/kg, visit day 22): −22.40%
mean percentage change from baseline of fasting LDL-C ([1]; single IV 1 mg/kg, visit day 29): −3.36%
mean percentage change from baseline of fasting LDL-C ([1]; single IV 3 mg/kg, visit day 1): 0.000%
mean percentage change from baseline of fasting LDL-C ([1]; single IV 3 mg/kg, visit day 2): −1.97%
mean percentage change from baseline of fasting LDL-C ([1]; single IV 3 mg/kg, visit day 3): −13.20%
mean percentage change from baseline of fasting LDL-C ([1]; single IV 3 mg/kg, visit day 4): −19.10%
mean percentage change from baseline of fasting LDL-C ([1]; single IV 3 mg/kg, visit day 8): −39.78%
mean percentage change from baseline of fasting LDL-C ([1]; single IV 3 mg/kg, visit day 15): −57.93%
mean percentage change from baseline of fasting LDL-C ([1]; single IV 3 mg/kg, visit day 22): −65.09%
mean percentage change from baseline of fasting LDL-C ([1]; single IV 3 mg/kg, visit day 29): −64.77%
mean percentage change from baseline of fasting LDL-C ([1]; single IV 3 mg/kg, visit day 43): −27.56%
mean percentage change from baseline of fasting LDL-C ([1]; single IV 6 mg/kg, visit day 1): 0.000%
mean percentage change from baseline of fasting LDL-C ([1]; single IV 6 mg/kg, visit day 2): −1.44%
mean percentage change from baseline of fasting LDL-C ([1]; single IV 6 mg/kg, visit day 3): −9.23%
mean percentage change from baseline of fasting LDL-C ([1]; single IV 6 mg/kg, visit day 4): −18.80%
mean percentage change from baseline of fasting LDL-C ([1]; single IV 6 mg/kg, visit day 8): −43.77%
mean percentage change from baseline of fasting LDL-C ([1]; single IV 6 mg/kg, visit day 15): −61.52%
mean percentage change from baseline of fasting LDL-C ([1]; single IV 6 mg/kg, visit day 22): −68.92%
mean percentage change from baseline of fasting LDL-C ([1]; single IV 6 mg/kg, visit day 29): −64.19%
mean percentage change from baseline of fasting LDL-C ([1]; single IV 6 mg/kg, visit day 36): −67.70%
mean percentage change from baseline of fasting LDL-C ([1]; single IV 6 mg/kg, visit day 43): −64.18%
mean percentage change from baseline of fasting LDL-C ([1]; single IV 6 mg/kg, visit day 50): −49.17%
mean percentage change from baseline of fasting LDL-C ([1]; single IV 6 mg/kg, visit day 57): −36.12%
mean percentage change from baseline of fasting LDL-C ([1]; single IV 12 mg/kg, visit day 1): 0.000%
mean percentage change from baseline of fasting LDL-C ([1]; single IV 12 mg/kg, visit day 2): −8.26%
mean percentage change from baseline of fasting LDL-C ([1]; single IV 12 mg/kg, visit day 3): −14.05%
mean percentage change from baseline of fasting LDL-C ([1]; single IV 12 mg/kg, visit day 4): −23.23%
mean percentage change from baseline of fasting LDL-C ([1]; single IV 12 mg/kg, visit day 8): −37.96%
mean percentage change from baseline of fasting LDL-C ([1]; single IV 12 mg/kg, visit day 15): −66.25%
mean percentage change from baseline of fasting LDL-C ([1]; single IV 12 mg/kg, visit day 22): −59.79%
mean percentage change from baseline of fasting LDL-C ([1]; single IV 12 mg/kg, visit day 29): −74.67%
mean percentage change from baseline of fasting LDL-C ([1]; single IV 12 mg/kg, visit day 36): −65.23%
mean percentage change from baseline of fasting LDL-C ([1]; single IV 12 mg/kg, visit day 43): −69.31%
mean percentage change from baseline of fasting LDL-C ([1]; single IV 12 mg/kg, visit day 50): −56.08%
mean percentage change from baseline of fasting LDL-C ([1]; single IV 12 mg/kg, visit day 57): −63.10%
mean percentage change from baseline of fasting LDL-C ([1]; single IV 18 mg/kg, visit day 1): 0.000%
mean percentage change from baseline of fasting LDL-C ([1]; single IV 18 mg/kg, visit day 2): −11.52%
mean percentage change from baseline of fasting LDL-C ([1]; single IV 18 mg/kg, visit day 3): −22.43%
mean percentage change from baseline of fasting LDL-C ([1]; single IV 18 mg/kg, visit day 4): −34.36%
mean percentage change from baseline of fasting LDL-C ([1]; single IV 18 mg/kg, visit day 8): −43.70%
mean percentage change from baseline of fasting LDL-C ([1]; single IV 18 mg/kg, visit day 15): −82.89%
mean percentage change from baseline of fasting LDL-C ([1]; single IV 18 mg/kg, visit day 22): −72.97%
mean percentage change from baseline of fasting LDL-C ([1]; single IV 18 mg/kg, visit day 29): −67.40%
mean percentage change from baseline of fasting LDL-C ([1]; single IV 18 mg/kg, visit day 36): −61.47%
mean percentage change from baseline of fasting LDL-C ([1]; single IV 18 mg/kg, visit day 43): −80.21%
Fasting triglyceride (TGs) levels ([1]; single IV 0.3-18 mg/kg, baseline 173 mg/dL): remained unchanged
High density lipoprotein cholesterol (HDL-C) levels ([1]; single IV 0.3-18 mg/kg, baseline about 49 mg/dL): did not change significantly
Cmax ([2]; 0.25 mg/kg, after 1st dose): 10900 ± 13000 ng/mL
Ctrough ([2]; 0.25 mg/kg, after 1st dose): 109 ± 406 ng/mL
Ctrough ([2]; 3 mg/kg, after 3rd dose): 3040 ± 4420 ng/mL
Ctrough ([2]; 6 mg/kg, after 3rd dose): 15600 ± 15300 ng/mL
